# B1: 40 bp S1/S2 duplex (dsDNA)
# DNA 1: ACCGAATTCTGACTTGCTAGGACATCTTTGCCCACGTTGA
# DNA 2: TCAACGTGGGCAAAGATGTCCTAGCAAGTCAGAATTCGGT
# Assays:
# EcoRI E111Q E111Q = settings: CITED F17; cited from earlier work
# EcoRI = settings: CITED F17; cited from earlier work
# [1] = system: RNA polymerase holoenzyme (Escherichia coli); settings: CITED; cited from earlier work
# LacI = LacI (UniProt P03023); settings: CITED F24; cited from earlier work
# Mlh1-Pms1 = Mlh1-Pms1 (Saccharomyces cerevisiae, UniProt P38920;P14242 P38920:1-769,P14242:1-873); assay: EMSA; 25 mM Hepes pH 7.6, 50 mM NaCl, RT; QD/antibody labelling did not disrupt binding; settings: tags: FLAG inserted after T448 or Y499 of Mlh1 and/or HA after D565 of Pms1, anti-tag quantum dots; chain copies: heterodimer (stated); label: 5'-32P
# Mlh1-Pms1, sequence (P38920 whole entry, chain 1 of 2): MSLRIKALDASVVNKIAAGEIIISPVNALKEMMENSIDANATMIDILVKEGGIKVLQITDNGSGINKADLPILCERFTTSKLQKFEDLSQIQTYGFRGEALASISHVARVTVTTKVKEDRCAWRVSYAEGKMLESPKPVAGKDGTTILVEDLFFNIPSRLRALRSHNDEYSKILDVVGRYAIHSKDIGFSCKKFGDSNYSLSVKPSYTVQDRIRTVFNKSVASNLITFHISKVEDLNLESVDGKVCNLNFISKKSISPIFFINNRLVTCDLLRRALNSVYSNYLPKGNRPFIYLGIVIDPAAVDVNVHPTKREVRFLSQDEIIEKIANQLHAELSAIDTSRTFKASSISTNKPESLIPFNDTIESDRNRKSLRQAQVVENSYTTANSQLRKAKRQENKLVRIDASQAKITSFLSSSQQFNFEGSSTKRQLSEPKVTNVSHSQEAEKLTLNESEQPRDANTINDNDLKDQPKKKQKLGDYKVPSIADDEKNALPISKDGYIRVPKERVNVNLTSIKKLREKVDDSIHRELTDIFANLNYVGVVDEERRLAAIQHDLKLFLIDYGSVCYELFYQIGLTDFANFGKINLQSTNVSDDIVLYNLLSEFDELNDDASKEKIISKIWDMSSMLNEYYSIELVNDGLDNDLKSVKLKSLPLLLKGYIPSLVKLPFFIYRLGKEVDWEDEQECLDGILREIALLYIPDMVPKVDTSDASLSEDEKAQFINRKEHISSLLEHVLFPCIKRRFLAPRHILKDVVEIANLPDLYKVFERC
# Mlh1-Pms1, sequence (P14242 whole entry, chain 2 of 2): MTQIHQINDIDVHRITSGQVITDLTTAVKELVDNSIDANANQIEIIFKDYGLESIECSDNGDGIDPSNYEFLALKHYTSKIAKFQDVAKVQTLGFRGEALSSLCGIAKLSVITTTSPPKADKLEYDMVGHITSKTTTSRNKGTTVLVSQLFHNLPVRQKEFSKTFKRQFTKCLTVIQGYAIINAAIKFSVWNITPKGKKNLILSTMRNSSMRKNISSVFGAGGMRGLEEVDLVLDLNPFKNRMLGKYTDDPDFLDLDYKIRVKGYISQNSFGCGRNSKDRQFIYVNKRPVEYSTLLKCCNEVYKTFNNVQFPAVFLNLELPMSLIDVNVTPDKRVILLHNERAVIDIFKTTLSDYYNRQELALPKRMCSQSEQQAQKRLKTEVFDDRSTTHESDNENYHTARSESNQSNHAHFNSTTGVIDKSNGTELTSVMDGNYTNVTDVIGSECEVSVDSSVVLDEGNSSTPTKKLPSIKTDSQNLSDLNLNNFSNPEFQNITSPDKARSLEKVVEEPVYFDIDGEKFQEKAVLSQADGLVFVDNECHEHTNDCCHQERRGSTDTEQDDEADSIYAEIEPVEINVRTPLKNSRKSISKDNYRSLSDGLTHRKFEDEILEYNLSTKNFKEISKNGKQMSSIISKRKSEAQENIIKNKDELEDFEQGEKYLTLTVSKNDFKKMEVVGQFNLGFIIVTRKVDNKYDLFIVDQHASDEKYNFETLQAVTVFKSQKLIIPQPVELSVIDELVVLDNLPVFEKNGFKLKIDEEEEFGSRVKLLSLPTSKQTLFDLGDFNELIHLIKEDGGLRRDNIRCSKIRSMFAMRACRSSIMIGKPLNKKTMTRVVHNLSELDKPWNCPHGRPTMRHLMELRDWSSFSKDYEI
# Protocol: Ensemble characterization of Mlh-Pms1 DNA-binding activity. […] Samples were loaded on 4% (w/v) non-denaturing polyacrylamide gels containing 0.5×TBE and electrophoresed at 130 V for 1 hour at RT. Gels were dried on 3mM Whatman paper and visualized by Phosphorlmaging. Analysis was done using ImageJ.
# LacI, sequence (P03023 whole entry): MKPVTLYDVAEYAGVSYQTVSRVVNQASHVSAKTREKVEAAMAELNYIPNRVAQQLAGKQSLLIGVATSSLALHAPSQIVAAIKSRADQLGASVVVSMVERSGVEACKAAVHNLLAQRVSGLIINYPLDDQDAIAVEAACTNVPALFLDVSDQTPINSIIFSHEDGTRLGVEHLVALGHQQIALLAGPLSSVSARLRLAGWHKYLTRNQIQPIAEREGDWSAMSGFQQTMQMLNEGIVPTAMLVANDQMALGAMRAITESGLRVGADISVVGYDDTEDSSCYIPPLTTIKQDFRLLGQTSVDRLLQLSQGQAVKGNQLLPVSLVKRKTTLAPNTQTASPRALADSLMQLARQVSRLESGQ
molecule,measurement,setting,value
EcoRI cognate site DNA,Kd,EcoRI E111Q E111Q,0.0025 pM
same,Kd,EcoRI,6.7 pM
lambda PL promoter,Kd,[1],100 pM
lambda PR promoter,Kd,[1],10 pM
nonspecific DNA,Kd,EcoRI E111Q E111Q,4.8 pM
same,Kd,LacI,> 1000 pM
B1,binding result,Mlh1-Pms1,binds

# From patent publication US20110136676, “GEOMETRIC PATTERNS AND LIPID BILAYERS FOR DNA MOLECULE ORGANIZATION AND USES THEREOF” (published 2011)
